What was measured:
[1] = target: BxpB (exosporium basal layer protein) (Bacillus anthracis); assay: LC-MS/MS and immunoblot analyses of BxpB-BclA and BxpB-(BclA NTD-eGFP) complexes
[2] = target: BxpB (exosporium basal layer protein) (Bacillus anthracis)
[3] = target: BxpB (exosporium basal layer protein) (Bacillus anthracis); assay: densitometry of anti-BxpB and anti-eGFP immunoblots

Substance | NTDs attached to a single molecule of BxpB (per molecule of BxpB) [1] | frequency of multiple attachments [2] | fusion proteins per molecule of BxpB (band 1) (per molecule of BxpB) [3] | fusion proteins per molecule of BxpB (band 2) (per molecule of BxpB) [3] | fusion proteins per molecule of BxpB (band 3) (per molecule of BxpB) [3]
BclA (collagen-like glycoprotein of the Bacillus anthracis exosporium nap) | < 3 | 57% |  |  | 
BclA NTD-enhanced green fluorescence protein (eGFP) fusion protein |  | 18% | 1 | 2 | 3

Reference: US20140323691A1
